Molecular target: H1 stem (#4900), HA stem construct derived from the A/Brisbane/59/2007 (H1N1) HA (Designed HA stem #4900 from influenza A …, stabilised)
Test: BLI
Details: both partners purified

B1: HB31 wild type (WT) Fab (Fab, V domains shown)
VH: EVQLLESGGGLVQPGGSLRLSCTVSGFTSSNYDMSWVRQAPGKGLEWVSGISGTGRDTYYADSVKGRFTISRDNSKNTLSLQMNSLRADDTAVYFCARDRPVLRYFDWQPYGLDVWGKGTTVTVSS
VL: QSALTQPPSASGSPGQSVTISCTGTSSDVGGYNYVSWYQQYPSKAPKLMIYEVSKRPSGVPDRFSGSKSGNTASLTVSGLQAEDEADYYCNSYAGSNLYVFGTGTKVTVL
notes: also called HB31 WT Fab; HB31 Fab; source: Expi293F, transiently co-transfected, purified (CaptureSelect CH1-XL)
  Kd: 4.3 nM

B2: HB31 wild type (WT) IgG (antibody, V domains shown)
VH: EVQLLESGGGLVQPGGSLRLSCTVSGFTSSNYDMSWVRQAPGKGLEWVSGISGTGRDTYYADSVKGRFTISRDNSKNTLSLQMNSLRADDTAVYFCARDRPVLRYFDWQPYGLDVWGKGTTVTVSS
VL: QSALTQPPSASGSPGQSVTISCTGTSSDVGGYNYVSWYQQYPSKAPKLMIYEVSKRPSGVPDRFSGSKSGNTASLTVSGLQAEDEADYYCNSYAGSNLYVFGTGTKVTVL
notes: copies: 2 + 2
  Kd: 2.7 nM
